# From PMC8568920, “Serum apolipoprotein A-I potentiates the therapeutic efficacy of lysocin E against Staphylococcus aureus” (Nature Communications, 2021)
# System: S. aureus
# Experiment: Lysocin E antimicrobial activity-enhancing activity (1 unit decreases the MIC of lysocin E to 1 µg ml−1)
# Type: cell-based, Staphylococcus aureus
# Conditions: ApoA species
# Description: Calf serum (10 ml) was added to 15 ml EtOH (60% v/v) and the mixture was centrifuged for 15 min. The collected supernatant was evaporated and suspended in 8 ml Milli-Q water (fraction [fr.] II). Fr. II with formic acid (0.1%) was applied to 10 ml of ODS resin (Waters Corporation, Milford, MA, USA). After washing with 25% EtOH and then 50% EtOH, the resin was eluted with 75% EtOH containing 0.1% formic acid. The eluted sample was evaporated and dissolved in 0.8 ml buffer A (10 mM phosphate buffer [pH 7.1], 6 M urea; Fr. III). Fr. III was applied to the Superose 12 10/300 GL gel filtration column (GE Healthcare) and eluted with the AKTApurifier system (GE Healthcare). The elution was performed in buffer A at a flow rate of 0.5 ml min^−1 and 60 fractions (0.5 ml per fr.) were collected in 2-ml tubes. All fractions, except for Fr. I, were dialysed in 10 mM phosphate buffer (pH 7.1) before assessment of their activities. Protein concentrations were measured using Coomassie Plus^TM protein assay reagent (Thermo Fisher) with bovine serum albumin as the standard. Amino acid sequence analysis was performed by in-gel digestion and mass spectrometric analysis. One unit was defined as the activity that decreases the MIC of lysocin E to 1 µg ml^−1.
molecule,measurement,value
"rmApoA-I: recombinant mouse ApoA-I (protein, UniProt Q00623 25-264, looked up) Apolipoprotein A-I: DEPQSQWDKVKDFANVYVDAVKDSGRDYVSQFESSSLGQQLNLNLLENWDTLGSTVSQLQERLGPLTRDFWDNLEKETDWVRQEMNKDLEEVKQKVQPYLDEFQKKWKEDVELYRQKVAPLGAELQESARQKLQELQGRLSPVAEEFRDRMRTHVDSLRTQLAPHSEQMRESLAQRLAELKSNPTLNEYHTRAKTHLKTLGEKARPALEDLRHSLMPMLETLKTQVQSVIDKASETLTAQ",Specific activity for lysocin E antimicrobial enhancing activity,6400 unit mg-1 protein
